# From publication PMC9798253 (Protein Science : A Publication of the Protein Society, 2023)
# System: GST-TRD (TRD domain of MECP2)
# Experiment: GST-pulldown of MBP-ADD
# Format: binding
# Conditions: 1 μg each protein; 25 mM Tris/HCl pH 8, 200 mM KCl; 1 h, 6°C; SDS-PAGE
molecule,measurement,value
"D529A/D530A/D531A triple mutation: D529A/D530A/D531A triple mutant of the ADD domain (MBP‐ADD in pulldown, mVenus‐ADD in cells) (protein, left off: MBP, N-terminal, kept) RERLVYEVRQKCRNIEDICISCGSLNVTLEHPLFVGGMCQNCKNCFLECAYQYAAAGYQSYCTICCGGREVLMCGNNNCCRCFCVECVDLLVGPGAAQAAIKEDPWNCYMCGHKGTYGLLRRREDWPSRLQMFFANNHD",pulldown of MBP-ADD by GST-TRD,reduced
